The values that follow come from US20100015130A1 (MIT, published 2010).

The experiment addresses GSK3β as used in the surface plasmon resonance (SPR) binding assays (Homo sapiens (Human), UniProt P49841 1-420). Nature of the experiment: SPR, stoichiometry inferred from the response. On the procedure: Surface plasmon resonance (SPR) was used to determine whether peptide 2 directly binds to GSK3β. GSK3β SPR binding assays were carried out with peptide 1, peptide 2, the GSK3β inhibitor L803-MTS, and as a negative control, a peptide from the N-type calcium channel, CACNA1B (FIG. 6A). […] To identify the peptide 2 sequences that mediate this interaction with GSK3β, we designed overlapping 15-mer peptides that covered peptide 2 and tested their binding to GSK3β SPR (FIG. 16B).

Sequence of GSK3β as used in the surface plasmon resonance (SPR) binding assays (P49841 whole entry, form in doubt): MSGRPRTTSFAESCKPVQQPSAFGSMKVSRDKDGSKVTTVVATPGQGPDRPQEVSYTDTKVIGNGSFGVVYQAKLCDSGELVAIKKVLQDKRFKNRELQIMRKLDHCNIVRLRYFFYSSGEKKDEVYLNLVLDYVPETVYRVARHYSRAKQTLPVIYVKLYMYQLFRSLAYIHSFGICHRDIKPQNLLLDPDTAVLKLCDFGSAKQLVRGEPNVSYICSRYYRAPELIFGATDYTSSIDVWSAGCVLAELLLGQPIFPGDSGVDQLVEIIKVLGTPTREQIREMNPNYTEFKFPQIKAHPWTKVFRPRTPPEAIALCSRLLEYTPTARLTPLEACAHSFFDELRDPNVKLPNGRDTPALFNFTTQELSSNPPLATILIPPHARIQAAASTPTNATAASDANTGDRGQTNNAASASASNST

As to PADIASLPGFQDTFTSSFSFIQLSLGAAGERGEAEGCLPSREAE (Synthetic peptide (Chi Scientific)) [Mouse DISC1 peptide 2 (195-238aa)], the peptide-protein ratio was 2 peptide:protein.

B1: Murine DISC1 peptide 3 (15-mer, mDISC1 amino acids 211 to 225) (peptide)
peptide: SFSFIQLSLGAAGER
notes: One of the overlapping 15-mer peptides that cover peptide 2; also called number 43; DISCtide2
Turning to B1, the peptide-protein ratio is 2 peptide:protein.
